Experiments:
[1] = biological target: triple-helical peptide II-27-B (II-27-derived sequence with GVOGEA within (GPP)5 hosts) (O in the letters is hydroxyproline); experiment: real-time label-free cell adhesion
[2] = biological target: triple-helical peptide II-27-C (II-27-derived sequence with GVOGEA within (GPP)5 hosts) (O in the letters is hydroxyproline); experiment: real-time label-free cell adhesion

- adhesion relative to that on II-27 [1]: ~40%
- adhesion relative to that on II-27 [2]: ~40%
B1: integrin α1β1 on rat pheochromocytoma PC12 cells (receptor, rat (endogenous in PC12))
chain 1: FNVDVKNSMSFSGPVEDMFGYTVQQYENEEGKWVLIGSPLVGQPKARTGDVYKCPVGRERAMPCVKLDLPVNTSIPNVTEIKENMTFGSTLVTNPNGGFLACGPLYAYRCGHLHYTTGICSDVSPTFQVVNSFAPVQECSTQLDIVIVLDGSNSIYPWESVIAFLNDLLKRMDIGPKQTQVGIVQYGENVTHEFNLNKYSSTEEVLVAANKIGRQGGLQTMTALGIDTARKEAFTEARGARRGVKKVMVIVTDGESHDNYRLKQVIQDCEDENIQRFSIAILGHYNRGNLSTEKFVEEIKSIASEPTEKHFFNVSDELALVTIVKALGERIFALEATADQSAASFEMEMSQTGFSAHYSQDWVMLGAVGAYDWNGTVVMQKANQMVIPHNTTFQTEPAKMNEPLASYLGYTVNSATIPGDVLYIAGQPRYNHTGQVVIYKMEDGNINILQTLGGEQIGSYFGSVLTTIDIDKDSYTDLLLVGAPMYMGTEKEEQGKVYVYAVNQTRFEYQMSLEPIRQTCCSSLKDNSCTKENKNEPCGARFGTAIAAVKDLNVDGFNDVVIGAPLEDDHAGAVYIYHGSGKTIREAYAQRIPSGGDGKTLKFFGQSIHGEMDLNGDGLTDVTIGGLGGAALFWARDVAVVKVTMNFEPNKVNIQKKNCRVEGKETVCINATMCFHVKLKSKEDSIYEADLQYRVTLDSLRQISRSFFSGTQERKIQRNITVRESECIRHSFYMLDKHDFQDSVRVTLDFNLTDPENGPVLDDALPNSVHEHIPFAKDCGNKERCISDLTLNVSTTEKSLLIVKSQHDKFNVSLTVKNKGDSAYNTRTVVQHSPNLIFSGIEEIQKDSCESNQNITCRVGYPFLRAGETVTFKIIFQFNTSHLSENAIIHLSATSDSEEPLESLNDNEVNISIPVKYEVGLQFYSSASEHHISVAANETIPEFINSTEDIGNEINVFYTIRKRGHFPMPELQLSISFPNLTADGYPVLYPIGWSSSDNVNCRPRSLEDPFGINSGKKMTISKSEVLKRGTIQDCSSTCGVATITCSLLPSDLSQVNVSLLLWKPTFIRAHFSSLNLTLRGELKSENSSLTLSSSNRKRELAIQISKDGLPGRVPLWVILLSAFAGLLLLMLLILALWKIGFFKRPLKKKMEK
chain 2: QTDKNRCLKANAKSCGECIQAGPNCGWCTNTTFLQEGMPTSARCDDLEALKKKGCHPSDIENPRGSQTIKKNKNVTNRSKGMAEKLRPEDITQIQPQQLLLKLRSGEPQKFTLKFKRAEDYPIDLYYLMDLSYSMKDDLENVKSLGTDLMNEMRRITSDFRIGFGSFVEKTVMPYISTTPAKLRNPCTSEQNCTSPFSYKNVLSLTDRGEFFNELVGQQRISGNLDSPEGGFDAIMQVAVCGSLIGWRNVTRLLVFSTDAGFHFAGDGKLGGIVLPNDGQCHLENNVYTMSHYYDYPSIAHLVQKLSENNIQTIFAVTEEFQPVYKELKNLIPKSAVGTLSGNSSNVIQLIIDAYNSLSSEVILENSKLPDGVTINYKSYCKNGVNGTGENGRKCSNISIGDEVQFEISITANKCPNKESENQLKLNPLGFTEEVEVVLQFICKCNCQSHGIPASPKCHEGNGTFECGACRCNEGRVGRHCECSTDEVNSEDMDAYCRKENSSEICSNNGECVCGQCVCRKRENTNEIYSGKFCECDNFNCDRSNGLICGGNGVCRCRVCECYPNYTGSACDCSLDTVPCVATNGQICNGRGICECGACKCTDPKFQGPTCETCQTCLGVCAEHKECVQCRAFNKGEKKDTCAQECSHFNLTKVESREKLPQPVQVDPVTHCKEKDIDDCWFYFTYSVNSKGEAHVHVVETPDCPTGPDIIPIVAGVVAGIVLIGLALLLIWKLLMIIHDRREFAKFEKEKMNAKWDTGENPIYKSAVTTVVNPKYEGK

— paper PMC3406685 (The Journal of Biological Chemistry, 2012)
